Measured values: US20130195807A1

Target: GHRH receptor (GHRH-R) of rat insulinoma INS-1 cells (rat) (UniProt Q02644)
Test: cell-based or functional assay

Sequence of UniProt Q02644 (Q02644 23-464): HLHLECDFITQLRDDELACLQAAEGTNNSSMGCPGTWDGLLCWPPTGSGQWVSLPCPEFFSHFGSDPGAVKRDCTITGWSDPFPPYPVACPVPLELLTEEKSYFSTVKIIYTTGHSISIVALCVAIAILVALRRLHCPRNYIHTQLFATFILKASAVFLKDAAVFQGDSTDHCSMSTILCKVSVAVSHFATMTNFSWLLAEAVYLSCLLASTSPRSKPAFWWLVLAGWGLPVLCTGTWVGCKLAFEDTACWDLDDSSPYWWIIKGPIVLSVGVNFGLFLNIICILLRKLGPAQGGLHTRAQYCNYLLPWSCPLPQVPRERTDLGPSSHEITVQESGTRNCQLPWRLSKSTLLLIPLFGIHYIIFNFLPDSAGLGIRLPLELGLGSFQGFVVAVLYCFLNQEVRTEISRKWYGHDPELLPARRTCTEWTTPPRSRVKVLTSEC

apoptosis of INS-1 cells as indicated by activity of caspases 3 and 7: 20 % reduction
cell proliferation of INS-1 cells: 50 % increase
Substance: GHRH agonist JI-36, (Dat1, Thr8, Orn12,21, Abu15, Nle27, Asp28, Agm29)hGH-RH(1-29) (peptide)
